According to US11357833B2, “Use of lysin to restore/augment antibacterial activity in the presence of pulmonary surfactant of antibiotics inhibited thereby” (priority 2015, dated 2022):
In brackets after ≈: the same amount, converted by molar mass.

What was measured:
[1] = system: MRSA, MSSA, and VISA strains of S. aureus; experiment: MIC by broth microdilution in increasing surfactant, strains pooled; conditions: for Antimicrobial activity in the presence of pulmonary (bovine-derived) surfactant: MRSA, MSSA and VISA strains
[2] = system: methicillin resistant strain (MRSA) MW2; experiment: MIC by broth microdilution, with and without bovine-derived surfactant
MSSA ATCC 25923 = experiment: Combination MIC assay in 7.5% surfactant; design: MIC alone / MIC combo: unit not given beside the values; conditions: for MIC combo: CF-301 and daptomycin in combination; for MIC alone: single agent
MSSA ATCC 29213 = experiment: Combination MIC assay in 7.5% surfactant; design: MIC alone / MIC combo: unit not given beside the values; conditions: for MIC combo: CF-301 and daptomycin in combination; for MIC alone: single agent
MSSA ATCC 49521 = experiment: Combination MIC assay in 7.5% surfactant; design: MIC alone / MIC combo: unit not given beside the values; conditions: for MIC combo: CF-301 and daptomycin in combination; for MIC alone: single agent
MRSA NRS-192 = experiment: Combination MIC assay in 7.5% surfactant; design: MIC alone / MIC combo: unit not given beside the values; conditions: for MIC combo: CF-301 and daptomycin in combination; for MIC alone: single agent
MSSA NRS-131 = experiment: Combination MIC assay in 7.5% surfactant; design: MIC alone / MIC combo: unit not given beside the values; conditions: for MIC combo: CF-301 and daptomycin in combination; for MIC alone: single agent
MRSA NRS-265 = experiment: Combination MIC assay in 7.5% surfactant; design: MIC alone / MIC combo: unit not given beside the values; conditions: for MIC combo: CF-301 and daptomycin in combination; for MIC alone: single agent
[3] = system: S. aureus (MRSA strain ATCC BAA-42); experiment: Murine model of S. aureus pneumonia; conditions: 14 days; CF-301 i.v., DAP s.c.; once daily
MSSA Newman = experiment: Combination MIC assay in 7.5% surfactant; design: MIC alone / MIC combo: unit not given beside the values; conditions: for MIC combo: CF-301 and daptomycin in combination; for MIC alone: single agent
[4] = system: methicillin-susceptible (MSSA) strain ATCC 29213; experiment: MIC by broth microdilution, with and without bovine-derived surfactant
MRSA NRS-255 = experiment: Combination MIC assay in 7.5% surfactant; design: MIC alone / MIC combo: unit not given beside the values; conditions: for MIC combo: CF-301 and daptomycin in combination; for MIC alone: single agent
MRSA BAA-1720 = experiment: Combination MIC assay in 7.5% surfactant; design: MIC alone / MIC combo: unit not given beside the values; conditions: for MIC combo: CF-301 and daptomycin in combination; for MIC alone: single agent
MRSA MW2 [5] = experiment: Combination MIC assay in 7.5% surfactant; design: MIC alone / MIC combo: unit not given beside the values; conditions: for MIC combo: CF-301 and daptomycin in combination; for MIC alone: single agent
MRSA MW2 [6] = experiment: BODIPY-labeled daptomycin binding assay, fluorescence microscopy; conditions: CF-301 8 μg/ml; BODIPY-DAP 4 μg/ml; 7.5% surfactant
VISA ATCC 700699 = experiment: as above; conditions: CF-301 4 μg/ml; DAP^BD 4 μg/ml; 30 min; 7.5% surfactant
[7] = system: 5 strains of MRSA and 5 strains of MSSA; experiment: Combination MIC assay in 7.5% surfactant, strains pooled; conditions: CF-301 and DAP combined, across strains

Molecule	Antimicrobial activity in the presence of pulmonary (bovine-derived) surfactant [1]	Fold reduction (MIC alone vs combo) (MSSA ATCC 25923) [fold]	MIC combo (MSSA ATCC 25923)	MIC alone (MSSA ATCC 25923)	Fold reduction (MIC alone vs combo) (MSSA ATCC 29213) [fold]	MIC combo (MSSA ATCC 29213)	MIC alone (MSSA ATCC 29213)	Fold reduction (MIC alone vs combo) (MSSA ATCC 49521) [fold]	MIC combo (MSSA ATCC 49521)	MIC alone (MSSA ATCC 49521)	Fold reduction (MIC alone vs combo) (MRSA NRS-192) [fold]	MIC combo (MRSA NRS-192)	MIC alone (MRSA NRS-192)	Fold reduction (MIC alone vs combo) (MSSA NRS-131) [fold]	MIC combo (MSSA NRS-131)	MIC alone (MSSA NRS-131)	Fold reduction (MIC alone vs combo) (MRSA NRS-265) [fold]	MIC combo (MRSA NRS-265)	MIC alone (MRSA NRS-265)	Fold reduction (MIC alone vs combo) (MSSA Newman) [fold]	other results
CCCCCCCCCC(=O)N[C@@H](Cc1c[nH]c2ccccc12)C(=O)N[C@H](CC(N)=O)C(=O)N[C@@H](CC(=O)O)C(=O)N[C@@H]1C(=O)NCC(=O)N[C@@H](CCCN)C(=O)N[C@@H](CC(=O)O)C(=O)N[C@H](C)C(=O)N[C@@H](CC(=O)O)C(=O)NCC(=O)N[C@H](CO)C(=O)N[C@@H]([C@H](C)CC(=O)O)C(=O)N[C@@H](CC(=O)c2ccccc2N)C(=O)O[C@@H]1C [DAP, daptomycin, reference compound]	not active	512	0.5	256	512	0.5	256	512	0.5	256	512	0.5	256	1024	0.5	512	1024	0.25	256	512	MIC increase ([1]; strain not specified, surfactant concentrations 1.25-15%): 256 fold; MIC ([2]; Staphylococcus aureus, MRSA, 24 h, read-out: Starting MIC (without surfactant)): 1 µg/mL (≈ 0.617 µM); Survival pattern, comparison between treatment groups [3]: same survival pattern as those treated with saline; MIC combo (MSSA Newman): 0.5; MIC alone (MSSA Newman): 256; MIC ([4]; Staphylococcus aureus, ATCC29213|MSSA, 24 h, read-out: Starting MIC (without surfactant)): 1 µg/mL (≈ 0.617 µM); Fold reduction (MIC alone vs combo) (MRSA NRS-255): 1024 fold; MIC combo (MRSA NRS-255): 0.5; MIC alone (MRSA NRS-255): 512; Fold reduction (MIC alone vs combo) (MRSA BAA-1720): 1024 fold; MIC combo (MRSA BAA-1720): 0.25; MIC alone (MRSA BAA-1720): 256; Fold reduction (MIC alone vs combo) (MRSA MW2 [5]): 1024 fold; MIC combo (MRSA MW2 [5]): 0.25; MIC alone (MRSA MW2 [5]): 256
CF-301: Bacteriophage lysin polypeptide, SEQ ID NO: 1 (GenBank accession ZP 03625529), antimicrobial agent against Staphylococcus aureus (protein, listed as Streptococcus suis) MTTVNEALNNVRAQVGSGVSVGNGECYALASWYERMISPDATVGLGAGVGWVSGAIGDTISAKNIGSSYNWQANGWTVSTSGPFKAGQIVTLGATPGNPYGHVVIVEAVDGDRLTILEQNYGGKRYPVRNYYSAASYRQQVVHYITPPGTVAQSAPNLAGSRSYRETGTMTVTVDALNVRRAPNTSGEIVAVYKRGESFDYDTVIIDVNGYVWVSYIGGSGKRNYVATGATKDGKRFGNAWGTFK	active	32	4	128	32	4	128	32	2	64	16	4	64	16	4	64	16	4	64	32	MIC increase ([2]; MRSA strain, surfactant concentrations 1.25-15%): up to 2 fold; Starting MIC (without surfactant) ([2]; MW2, no surfactant, 24 hours at 35° C.): 32 µg/mL; BODIPY-DAP (DAP^BD) binding to MRSA (MRSA MW2 [6]): promotes; MIC combo (MSSA Newman): 4; MIC alone (MSSA Newman): 128; Starting MIC (without surfactant) ([4]; ATCC 29213, no surfactant, 24 hours at 35° C.): 16 µg/mL; MIC increase ([4]; MSSA strain, surfactant concentrations 1.25-15%): up to 2 fold; Fold reduction (MIC alone vs combo) (MRSA NRS-255): 16 fold; MIC combo (MRSA NRS-255): 2; MIC alone (MRSA NRS-255): 64; DAP^BD binding to VISA (VISA ATCC 700699): promotes; Growth inhibitory concentration lower in combination than as single agent (MIC reduction) [7]: 16-32 fold; Fold reduction (MIC alone vs combo) (MRSA BAA-1720): 32 fold; MIC combo (MRSA BAA-1720): 2; MIC alone (MRSA BAA-1720): 64; Fold reduction (MIC alone vs combo) (MRSA MW2 [5]): 32 fold; MIC combo (MRSA MW2 [5]): 2; MIC alone (MRSA MW2 [5]): 64
